According to patent US11981740B2, “BAFF-R antibodies and uses thereof” (CITY OF HOPE, priority 2016, dated 2024):

Key:
[1] = system: JeKo-1 (MCL), SU-DHL-6 (DLBCL), Raji (Burkitt lymphoma), and RL (FL); test: Flow cytometry binding to NHL cell lines; design: species or system human; details: chimeric antibodies conjugated to Alexa Fluor 488
Text: FIGS. 1A, 1B, 1C, 1D and 1E are FACS images showing generation and specificity of novel monoclonal antibodies against human BAFF-R. FIG. 1A is a FACS analysis of cell surface expression of hBAFF-R-GFP fusion protein in mouse fibroblast L cells. Gated on GFP-positive cells, engineered L cell clone (right plot) is compared to parental L cells (left plot). Clone D2C was selected for further studies. FIGS. 1B, 1C, 1D and 1E are FACS traces of fluorescent counts of anti-BAFF-R antibodies binding cell lines and patient samples. […] BAFF-R-negative 293T embryonic kidney cell line was used as a control. […] Parental L cells and secondary anti-hIgG-APC antibodies only were used as controls. […] The data are representative of three independent experiments. For all of FIGS. 1B-1E, the traces from top to bottom as shown in the figures correlate with the variables (e.g., antibody type or cell type) used from top to bottom shown below or next to the figures.
FIG. 10 are results of FACS analyses showing hBAFF-R mAbs recognized non-Hodgkin lymphoma cell lines in vitro. […] The traces from top to bottom as shown in the figures correlate with the variables (e.g., antibody type or cell type) used from top to bottom shown next to the figures.

[2] = system: BAFF-R-expressing L cells and JeKo-1; test: ADCC chromium-51 release assay, L cells, JeKo-1, U266; format: cell-based; details: NK cells E:T 20:1; BAFF-R positive vs negative targets
Procedure: Antibody-induced cytotoxicities measured by chromium-51 release after incubation with C55, C90, or rituximab and effectors (NK cells or complement containing serum). NK effector cell to target ratio (E:T) of 20:1. […] Data are shown as the mean±s.d. of triplicate samples. *P<0.05 compared with NK cells by two-tailed Student's t-test.
FIG. 12 is a graph showing chimeric antibodies induced ADCC against BAFF-R expressing L cells. BAFF-R-expressing D2C L cells (targets) were labeled with chromium-51 followed by incubation overnight with chimeric mAb+NK cells (effector to target ratio, 20:1). Culture supernatant was analyzed for released chromium.
(§1) Cytotoxicity assays. Target cells (L cells, human tumor lines, primary patient samples) were labeled with chromium-51 (51Cr, Perkin Elmer, Waltham, MA) for a 51Cr release assay. Briefly, antibodies and effectors (NK cells or complement serum standard [Sigma Aldrich, St. Louis, MO]), were added to labeled target cells and incubated up to 18 hours. NK cells were enriched from PBMC (NK cell enrichment kit, Stemcell Technologies, Vancouver, Canada). 51Cr released into supernatant was detected with a Wizard Automatic Gamma Counter (Perkin Elmer).

[3] = system: Mino cells; test: Antibody internalization by flow cytometry; format: cell-based; details: 37° C. for 1 hour
Procedure: Mino cells were incubated with mAb C90 (0.05 μg/10^6 cells) at 4° C. for 20 minutes followed by incubation at 37° C. for 1 hour. Flow cytometry analysis was performed with anti-mouse IgG-APC. Cells were gated for surface localized antibodies (OUT) and loss of cell surface staining (IN).

[4] = system: JeKo-1 MCL cell line; test: In vivo JeKo-1 MCL xenograft, bioluminescence imaging; design: species or system NSG mice; details: compared with PBS or NK cells alone
Text: (§2) FIG. 4A is a schematic showing treatment schedule following Day 0 tumor challenge with minimum lethal dose of tumors. Treatments were given by IV tail vein injections. FIGS. 4B and 4C are images showing chimeric antibodies targeting human BAFF-R elicited in vivo therapeutic effects against B-cell tumors. Bioluminescence images of mice challenged with luciferase-expressing tumors: JeKo-1 (MCL) (FIG. 4B) or RS4; 11 (ALL) (FIG. 4C). Experimental groups received treatment of chimeric BAFF-R mAbs (C55 or C90, as indicated). Control group mice received PBS, NK cells alone, or rituximab on the same schedule. Data are representative of three independent experiments.
(§3) In vivo studies. For tumor models, stable, luciferase-expressing tumors lines were established for bioluminescent imaging in mouse models. Briefly, a luciferase gene was introduced into tumor lines by a lentivirus gene delivery system (pLenti7.3/V5-DEST Gateway Vector Kit, Life Technologies, Carlsbad, CA). The minimum lethal dose per mouse was determined for each tumor cell line by dose titration. Tumor cells were injected intravenously (IV) and mice were monitored by in vivo bioluminescence imaging for minimum tumor dose to ensure engraftment. Minimum lethal tumor doses were: 1×10^6 JeKo-1, 5×10^5 RS4; 11, 5×10^5 JeKo-1-CD20-KO, or 2.5×10^4 Z-138 cells. […]

[5] = system: RS4; 11 (acute lymphoblastic leukemia, ALL); test: In vivo RS4;11 ALL xenograft, bioluminescence imaging; details: RS4;11 challenged NSG mice
Text: as §2, §3

[6] = system: primary CLL (n=3) and MCL (n=2) samples; test: ADCC on primary samples from rituximab-treated patients; format: cell-based, human; details: patients previously treated with rituximab; E:T=20:1
Procedure: FIGS. 3A and 3B are graphs showing BAFF-R monoclonal antibodies induce in vitro Antibody Dependent Cell-Mediated Cytotoxicity (ADCC) against primary B-cell tumors. Antibody-dependent cell-mediated cytotoxicity (ADCC) effects were measured by chromium-51 release after incubation with C55, C90, or rituximab and effectors (NK cells). […] Data are shown as the mean±s.d. of triplicate samples. *P<0.05 compared with NK cells by two-tailed Student's t-test.
as §1

[7] = system: JeKo-1-CD20-KO clone 25; test: ADCC on rituximab-resistant JeKo-1-CD20-KO; format: cell-based; details: E:T=20:1
Procedure: FIGS. 5A, 5B and 5C are images or graphs showing chimeric BAFF-R antibodies induce ADCC on drug resistant lymphoma models in vitro. FIG. 5A is a scatterplot of FACS analysis showing CD20 binding on JeKo-1 cells following CRISPR/HDR knock-out of CD20 gene. CD20 expression on selected CD20−/−clone #25 compared to WT JeKo-1. ADCC effects measured by chromium-51 release after incubation with C55, C90, or rituximab and effectors NK cells (E:T=20:1). Percentage of cell specific lysis of target cells: rituximab-resistant JeKo-1-CD20-KO (FIG. 5B) and ibrutinib-resistant Z-138 and SP49-IR (FIG. 5C). All data are representative of two or more identical experiments. Data are shown as the mean±s.d. of triplicate samples. *P<0.05 compared with NK cells by two-tailed Student's t-test.
as §1
Generation of JeKo-1-CD20-KO. […]

[8] = system: JeKo-1-CD20-KO tumor cells; test: In vivo JeKo-1-CD20-KO xenograft; design: species or system NSG mice
Text: (§4) FIGS. 6A and 6B are images and FIG. 6C are graphs showing chimeric antibodies targeting human BAFF-R elicited in vivo therapeutic effects against drug resistant B-cell tumors. Bioluminescence images of mice challenged with luciferase-expressing tumors JeKo-1-CD20-KO cells (FIG. 6A) or ibrutinib-resistant Z-138 cells (FIG. 6B) followed by antibody treatments as in FIG. 4. Control group mice received PBS, NK cells alone, or rituximab on the same schedule. […] Tumor free rate and survival differences between experimental and all control groups were analyzed by log-rank test (**P<0.001). Data are representative of three independent experiments.
as §3

[9] = system: ibrutinib-resistant Z-138; test: In vivo ibrutinib-resistant Z-138 xenograft; design: species or system NSG mice; details: Z-138 tumor-bearing mice; compared with PBS or NK only
Text: as §4, §3

B1: C55: chimeric anti-BAFF-R mAb from clone 55 containing human IgG1 constant regions (antibody, V domains shown)
VH: QVTLKESGPGILKPSQTLSLTCSFSGFSLSTSGMGVGWIRQPSGKGLEWLAHIWWDDDKYYNSSLKSHLTISKDTSRNQVFLKITSVDTADTATYYCARSFGYGLDYWGQGTTLTVSSAS
VL: DIQMTQTTSSLSASLGDRVTISCSASQDISNYLNWYQQKPDGTVKLLIYYTSSLHSGVPSRFSGSGSGTDYSLTISSLEPEDIATYYCHQFSELPWTFGGGTKLEIKRT
[1]
  direct binding to NHL lines: exhibited direct binding
[2]
  antibody-dependent cell-mediated cytotoxicity (ADCC): specifically against BAFF-R-expressing L cells and JeKo-1, but not BAFF-R negative L cells nor the BAFF-R negative human multiple myeloma line, U266
[3]
  internalization upon binding BAFF-R: limited internalization
[4]
  tumor growth: significant retardation of tumor growth
[5]
  tumor growth: markedly retarded tumor growth
[6]
  ADCC killing of primary samples: sensitive to killing by ADCC
[7]
  sensitivity to antibody-mediated cytotoxicity: retained sensitivity
[8]; 80-day curves
  tumor free and long-term overall survival: significant antitumor effects
[8]; Day 20
  tumor burden by bioluminescent imaging: no visible tumors
[9]
  antitumor effects: significant effects were observed
